{"source": "patent US20220213467A1", "about": "(YEDA RESEARCH AND DEVELOPMENT, published 2022)", "binders": {"B1": {"name": "gp6, bacteriophage T4 gene product 6 (other)", "chain": "MANTPVNYQLTRTANAIPEIFVGGTFAEIKQNLIEWLNGQNEFLDYDFEGSRLNVLCDLLAYNTLYIQQFGNAAVYESFMRTANLRSSVVQAAQDNGYLPTSKSAAQTEIMLTCTDALNRNYITIPRGTRFLAYAKDTSVNPYNFVSREDVIAIRDKNNQYFPRLKLAQGRIVRTEIIYDKLTPIIIYDKNIDRNQVKLYVDGAEWINWTRKSMVHAGSTSTIYYMRETIDGNTEFYFGEGEISVNASEGALTANYIGGLKPTQNSTIVIEYISTNGADANGAVGFSYADTLTNITVININENPNDDPDFVGADGGGDPEDIERIRELGTIKRETQQRCVTATDYDTFVSERFGSIIQAVQTFTDSTKPGYAFIAAKPKSGLYLTTVQREDIKNYLKDYNLAPITPSIISPNYLFIKTNLKVTYALNKLQESEQWLEGQIIDKIDRYYTEDVEIFNSSFAKSKMLTYVDDADHSVIGSSATIQMVREVQNFYKTPEAGIKYNNQIKDRSMESNTFSFNSGRKVVNPDTGLEEDVLYDVRIVSTDRDSKGIGKVIIGPFASGDVTENENIQPYTGNDFNKLANSDGRDKYYVIGEINYPADVIYWNIAKINLTSEKFEVQTIELYSDPTDDVIFTRDGSLIVFENDLRPQYLTIDLEPISQ", "notes": "Expressed cell-free; also called gene-6 product"}, "B2": {"name": "gp8, bacteriophage T4 gene product 8 (other)", "chain": "MNDSSVIYRAIVTSKFRTEKMLNFYNSIGSGPDKNTIFITFGRSEPWSSNENEVGFAPPYPTDSVLGVTDMWTHMMGTVKVLPSMLDAVIPRRDWGDTRYPDPYTFRINDIVVCNSAPYNATESGAGWLVYRCLDVPDTGMCSIASLTDKDECLKLGGKWTPSARSMTPPEGRGDAEGTIEPGDGYVWEYLFEIPPDVSINRCTNEYIVVPWPEELKEDPTRWGYEDNLTWQQDDFGLIYRVKANTIRFKAYLDSVYFPEAALPGNKGFRQISIITNPLEAKAHPNDPNVKAEKDYYDPEDLMRHSGEMIYMENRPPIIMAMDQTEEINILFTF", "notes": "Expressed cell-free; also called gene-8 product"}, "B3": {"name": "gp10, bacteriophage T4 gene product 10 (other)", "chain": "MKQNINIGNVVDDGTGDYLRKGGIKINENFDELYYELGDGDVPYSAGAWKTYNASSGQTLTAEWGKSYAINTSSGRVTINLPKGTVNDYNKVIRARDVFATWNVNPVTLVAASGDTIKGSAVPVEINVRFSDLELVYCAPGRWEYVKNKQIDKITSSDISNVARKEFLVEVQGQTDFLDVFRGTSYNVNNIRVKHRGNELYYGDVFSENSDFGSPGENEGELVPLDGFNIRLRQPCNIGDTVQIETFMDGVSQWRSSYTRRQIRLLDSKLTSKTSLEGSIYVTDLSTMKSIPFSAFGLIPGEPINPNSLEVRFNGILQELAGTVGMPLFHCVGADSDDEVECSVLGGTWEQSHTDYSVETDENGIPEILHFDSVFEHGDIINITWFNNDLGTLLTKDEIIDETDNLYVSQGPGVDISGDVNLTDFDKIGWPNVEAVQSYQRAFNAVSNIFDTIYPIGTIYENAVNPNNPVTYMGFGSWKLFGQGKVLVGWNEDISDPNFALNNNDLDSGGNPSHTAGGTGGSTSVTLENANLPATETDEEVLIVDENGSVIVGGCQYDPDESGPIYTKYREAKASTNSTHTPPTSITNIQPYITVYRWIRIA", "notes": "also called gene-10 product"}}, "key": {"[1]": {"molecular_target": "T1, pre-wedge, gp10-7-8 complex (bacteriophage T4) (bacteriophage T4, UniProt P10928 1-602; P19061 1-1032; P19062 1-334)", "T1 construct": "also called pre-wedges", "experiment": "on-chip gene titration, yield calculated from post-staining"}, "[2]": {"molecular_target": "T2, gp10-7 complex (bacteriophage T4) (bacteriophage T4, UniProt P10928 1-602; P19061 1-1032)", "T2 construct": "also called gp10-7 complexes", "experiment": "on-chip assemblograms in 1D compartments, post-staining"}, "[3]": {"molecular_target": "T3, gp7, bacteriophage T4 gene product 7 (bacteriophage T4, UniProt P19061 1-1032)", "T3 construct": "Expressed cell-free; also called gene-7 product", "T3 sequence": "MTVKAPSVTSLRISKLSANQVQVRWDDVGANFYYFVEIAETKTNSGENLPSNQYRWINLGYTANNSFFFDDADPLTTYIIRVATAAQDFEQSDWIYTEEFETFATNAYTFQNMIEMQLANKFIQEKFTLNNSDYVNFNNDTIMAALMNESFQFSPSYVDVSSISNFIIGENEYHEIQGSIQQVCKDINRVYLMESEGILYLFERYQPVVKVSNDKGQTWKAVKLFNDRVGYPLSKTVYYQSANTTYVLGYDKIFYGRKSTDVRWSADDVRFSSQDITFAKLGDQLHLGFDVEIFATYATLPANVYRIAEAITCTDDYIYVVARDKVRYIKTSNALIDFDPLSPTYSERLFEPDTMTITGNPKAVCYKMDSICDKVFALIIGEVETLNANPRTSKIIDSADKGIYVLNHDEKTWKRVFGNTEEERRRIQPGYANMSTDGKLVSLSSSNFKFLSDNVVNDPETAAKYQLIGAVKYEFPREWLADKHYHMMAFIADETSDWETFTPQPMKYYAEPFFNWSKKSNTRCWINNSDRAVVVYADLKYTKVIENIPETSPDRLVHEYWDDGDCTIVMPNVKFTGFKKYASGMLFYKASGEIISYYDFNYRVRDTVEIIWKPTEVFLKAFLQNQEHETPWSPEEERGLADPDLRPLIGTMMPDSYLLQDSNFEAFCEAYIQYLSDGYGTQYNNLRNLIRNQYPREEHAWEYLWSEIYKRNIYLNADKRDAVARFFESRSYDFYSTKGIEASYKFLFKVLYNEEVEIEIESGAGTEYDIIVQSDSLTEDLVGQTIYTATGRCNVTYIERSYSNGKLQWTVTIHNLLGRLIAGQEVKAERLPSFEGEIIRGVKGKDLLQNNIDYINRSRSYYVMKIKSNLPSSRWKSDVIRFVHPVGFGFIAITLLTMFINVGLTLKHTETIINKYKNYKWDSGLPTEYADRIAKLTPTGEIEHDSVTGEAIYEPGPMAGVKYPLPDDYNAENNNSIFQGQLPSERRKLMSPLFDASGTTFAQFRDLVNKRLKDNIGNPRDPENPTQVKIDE", "experiment": "on-chip assemblograms in 1D compartments on gp11-HA, post-staining with gp8"}}}
{"binder": "B1", "values": [{"measurement": "binding result", "setting": "[1]", "value": "binds"}]}
{"binder": "B2", "values": [{"measurement": "binding result", "setting": "[2]", "value": "binds"}]}
{"binder": "B3", "values": [{"measurement": "binding result", "setting": "[3]", "value": "binds"}]}
